Reference: publication PMC11718114 (Nature Communications, 2025)

How the values were obtained:
Conditions in all cases: both partners purified
[1] = target: T1, PI3Kα: p110α(2-1068)W1057A/I1058A/F1059A + p85(322-600) (human, UniProt P42336 2-1068; P27986 322-600, W1057A | I1058A | F1059A); assay: ITC; RAS GTPase (GMPPNP-bound, 300–500 μM) in the syringe, PI3K isoform or PI3Kα-RBD (30–50 μM) in the cell; 25 °C; 20 mM HEPES pH 7.4, 150 mM NaCl, 5 mM MgCl2, 1 mM TCEP; one set of sites; two replicates
T1 construct: human PIK3CA (p110α), residues 2-1068; human PIK3R1 (p85α), residues 322-600 (nSH2-iSH2), untagged; also called PI3Ka; PI3Kα (p110α + p85); source: insect cells (baculovirus), co-expressed, purified (IMAC, TEV cleavage, second IMAC, anion exchange, SEC); not shown: His6, N-terminal, cleaved; MBP, N-terminal, cleaved

[2] = target: T2, PI3Kα-RBD, PIK3CA-RBD(157-289) (human, UniProt P42336 157-289); assay: as above
T2 construct: also called PI3Ka-RBD; p110α-RBD; source: E. coli, purified (IMAC, TEV cleavage, second IMAC, SEC); not shown: His6, N-terminal, cleaved; MBP, N-terminal, cleaved

[3] = target: T3, PI3Kα-RBD (PIK3CA-RBD(157-289)) (human, UniProt P42336 157-289); assay: ITC; GMPPNP-bound RAS (300–500 μM) in the syringe, PI3K isoform or PI3Kα-RBD (30–50 μM) in the cell; 25 °C; 20 mM HEPES pH 7.4, 150 mM NaCl, 5 mM MgCl2, 1 mM TCEP; one set of sites; duplicates
T3 construct: also called p110α-RBD; p110α RBD; source: E. coli, purified (IMAC, TEV cleavage, second IMAC, SEC); not shown: His6, N-terminal, cleaved; MBP, N-terminal, cleaved

[4] = target: T4, PI3Kα: p110α(2-1068) W1057A/I1058A/F1059A + p85(322-600) (human, UniProt P42336 2-1068; P27986 322-600, W1057A | I1058A | F1059A); assay: as above
T4 construct: PIK3CA (p110α, catalytic subunit of PI3Kα), human, residues 2-1068; PIK3R1 (p85α regulatory subunit), human, residues 322-600 (nSH2-iSH2), untagged; also called PIK3CA(2-1068)W1057A/I1058A/F1059A + PIK3R1(322-600); p110α/p85; source: insect cells (baculovirus), co-expressed, purified (IMAC, TEV cleavage, second IMAC, anion exchange, SEC); not shown: His6, N-terminal, cleaved; MBP, N-terminal, …

B1: RRAS2(1-179)-Q36A, GMPPNP-bound (domain or fragment, human, UniProt P62070 1-179, looked up)
chain: MAAAGWRDGSGQEKYRLVVVGGGGVGKSALTIQFIASYFVTDYDPTIEDSYTKQCVIDDRAARLDILDTAGQEEFGAMREQYMRTGEGFLLVFSVTDRGSFEEIYKFQRQILRVKDRDEFPMILIGNKADLDHQRQVTQEEGQQLARQLKVTYMEASAKIRMNVDQAFHELVRVIRKFQ
notes: limits for the ITC are not separately stated; also called RRAS2-Q36A; source: E. coli, purified (IMAC, TEV cleavage, second IMAC, SEC); not shown: His6, N-terminal, cleaved; MBP, N-terminal, cleaved
Q: With B1 as the binder, how does the Kd [1] read?
A: 2.1 µM

Q: And the “stoichiometry N” value [1]?
A: 0.95 sites

Q: What about the Kd [2] of the same binder?
A: 4.9 µM

Q: And the “stoichiometry N” value [2]?
A: 1.12 sites

B2: RRAS(22-192) (domain or fragment, human, UniProt P10301 22-192, looked up)
chain: GDPPPSETHKLVVVGGGGVGKSALTIQFIQSYFVSDYDPTIEDSYTKICSVDGIPARLDILDTAGQEEFGAMREQYMRAGHGFLLVFAINDRQSFNEVGKLFTQILRVKDRDDFPVVLVGNKADLESQRQVPRSEASAFGASHHVAYFEASAKLRLNVDEAFEQLVRAVRK
notes: source: E. coli, purified (IMAC, TEV cleavage, second IMAC, SEC); exchanged to GMPPNP; not shown: His6, N-terminal, cleaved; MBP, N-terminal, cleaved
Q: Does B2 bind [3]?
A: binds

Q: Does B2 bind [4]?
A: binds

B3: RRAS2(1-179)-Q36A (domain or fragment, human, UniProt P62070 1-179, looked up)
chain: B1 chain
notes: RRAS2 (TC21), human, residues 1-179; Limits 1-179 are stated for the crystals; also called RRAS2-Q36A; source: E. coli, purified (IMAC, TEV cleavage, second IMAC, SEC); exchanged to GMPPNP; not shown: His6, N-terminal, cleaved; MBP, N-terminal, cleaved
Q: How did the “fold increase in binding affinity against wild-type RRAS2” value [3] turn out when B3 was run?
A: 2 fold
